According to the RNAGym collection of RNA variant scans (doi:10.1073/pnas.2313332121):
Fewer inactive variants are shown than the library holds.

B1: TPR 5TU (parent)
chain: GGAUCUUCUCGAUCUAACAAAAAAGACAAAUCUGCCACAAAGCUUGAGAGCAUCUUCGGAUGCAGAGGCGGCAGCCUUCGGUGGCGCGAUAGCGCCAACGUUCUCAACUAUGACACGCAAAACGCGUGCUCCGUUGAAUGGAGUUUAUCAUG

Variants of: B1
Test: polymerase ribozyme fitness, log enrichment relative to wild type (log ratio); higher = more active; in vitro selection for triplet polymerase activity
Procedure, shortened: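 Streptavidin-bead capture of gel-excised extended constructs, followed by RT-PCR, closed a single triplicate in vitro selection round. That round began by annealing PCR-built, transcribed mutant libraries of each subunit of a heterodimeric triplet polymerase ribozyme with a biotinylated primer, the partner subunit and triplets, then incubating them frozen at −7 °C. After Illumina sequencing of inputs and outputs, genotypes needed ≥10 input reads and ≥1 read per output. Fitness is the base-2 logarithm of genotype enrichment over wild-type enrichment, using inverse-variance-weighted replicate averages.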

Row | Variant | polymerase ribozyme fitness (log ratio)
1 | GGAUCUUCUCGAUCUAACAAGAAAGACAAAUUUGCCACAAAGCUUGAGAGCAUCUUCGGAUGCAGAGGCGGCAGCCUUCGGUGUCGCGAUAGCGCCAACGUUCUCAACUAUGACUCGCAAAACGCGUGCUCCGUUGAAUGGAGCUUAUCAUG | ≤ -4.2
2 | GGAUCUUCUCGAUCUAACAAGAAAGAGACAUCUGCCACAAAGCUUGAGAGCAUCUUCGGAUGCAGAGGCGGCCUGCUUCGGUGGUGCAAUAGCGCCAACGUUCUCAACUAUGACACGCAAAACGCGUGCUCCGUUGAAUGGAGUUUAUCAUG | ≤ -4.2
3 | GGAUCUUCUCGAUCUAACAAGAAAGACAAAUCUGCCACAAAGCUUGAGAGCAUCUUCGGAUGCAGAGGCGGCAGCCUUCGGUGGCGCGGUAGCGCCAAUGUUCUCAACUAUGACACGCAAAACGCGUGCUCCGUUGAAUGGAGUUUAUCAUG | -1.34
4 | GGAUCUUCUCGAUCUAACAAGAAAGACAAAUCUGCCACAAAGCUUGAGAGCAUAUUCGGAUGCAGAGGCGGCAGCCUUCGGUGGCGCGAUAGCGCCAACGUUCUCAACUAUGACACGCAAAACGCGUGCUCCGUUGAAUGGAGUUUAUCAUG | -0.617
5 | GGAUCUUCUCGAUCUAACAAGAAAGACAAAUCUGCCACACAGCUUGAGAGCAUCUUCGGAUGCAGAGGCGGCAGCCUUCGGUGGCGCGAUAGCGCCAACGUUCUCAACUAUGACACGCAAAACGCGUGCUCCGUUGAAUGGAGUUUAUCAUG | 0.803
6 | GGAUCUUCUCGAUCUAACAAGAAAGACAAAUCUGCCACAAAGCUUGAGAGCGAUUUCGGAUGCAGAGGCGGCAGCCUUCGGUGGCGUGAUAGCGACAACGUUCUCAACUAUGACACGCAAAACGCGUGCUCCGUUAAAUUGAGUUUAUCAUG | ≤ -4.2
7 | GGAUCUUCUCGAUCUAACAAGAAAGACAAAUCUGCCGCAAAGCUUGAGAGCAUCUUCGGAUGCAGAGGCGGCAGCCUUCGGUGGCGCGAUAGCGUCAACGUUCUCAACUAUGACGCGCAAAACGCGUGCUCCGUUGAAUGGACUUUAUCAUG | -3.82
8 | GGAUCUUCUCGAUCUAACAAGAAAGACAAAUCUGCCACAAAGCUUGAGCGCAUCUUCGGAUGCAGAGGCGGCAGCCUUCGGUGACGCGAUAUCGCCUACGUUCUCAACUAUGACACGCAAAACGCGUGCUCCGUUGAGUGGAGUUUAUCAUG | ≤ -4.2
9 | GGAUCUUCUCGAUCUAACAAGAAAGACAAAUCUGCCACAAAGCUUGAGAGCAUUUUCGGAUGCAGAGGCGGCAGCCUUCGGUGGCGCGAUAGCGCGAACGUUCUCAACUAUGACACGCAAAACGCGUGAUCCGUUGAAUGGAGUUUAUCAUG | -3.17
10 | GGAUCUUCUCGAUCUAACAAGAAAGACAAAUCUGCUACAAAGCUUGAGAGCCUCUUCGGAUGCAGAGGCGGCAGCCUUCGGUGGCGCGAUAGCGCCAACGUUCUCAUCUAUGACACGCAAAACGCGCGCUCCGUUGAAUGGAGUUUAUCAUG | ≤ -4.2
11 | GGAUCUUCUCGAUCUAACAAGAAAGACAAAUCUGCCACAAAGCUUGAGAGCAUCUUCGGAUGCAGAGGCGGCAGCCUUCGGUGGCGCGAUAGCGCCAACGUUCUCAACUAUGACACGCAAAACGCGUGCUCCGUUGAGUGGAGUUUAUCAUG | -3.38
12 | GGAUCUUCUCGAUCUAACAAGAAAGACAAAUCUGCCACAAAGCUUGAGCGCAUCUUCGGAUGCAGAGGCGGCAGCCUUCGGUGGCGCGAUAGGGCUAACGUUCUCAACUAUGACACGCAAAACGCGUGCUCCGUUGAAUGGAGUUUAUCAUG | ≤ -4.2
13 | GGAUCUUCUCGAUCUAACAAGAAAGACAAAUCUGCCACAAAGCUUGAGAGCGUCUUCGGAUGCAGAGGCGGCAGCCUUCGGUGGCGUGAGAGCGCCAACGUUCUCGGCUAUGACACGCAAAACGCGUGCUCCGUUGAAUGGAGUUUAUCAUG | ≤ -4.2
14 | GGAUCUUCUCGAUCUAACAAGAAAGACAAGUCUGCCACAAAGCUUGAGAGCAUCUUCGGAUGCAGAGGCGGCAGCCUUCGGUGGCGCGAUAGCGCCAACGUUCUCAACUAUGACACGCAAAACGUGUGCUCCCUUGAAUGGAGUUUAUCAUG | ≤ -4.2
15 | GGAUCUUCUCGAUCUAACAAGAAAGACAAAUCUGCGACAAAGCUUGAGAGCACCUUCGGAUGCAGAGGCGGCAGCCUUCGGUGGCGCGAUAGCGCCAACGUUCUCAACUAUGACACGCAAAACGCGUGCUCCGUUGAAUGGAGUUUAUCAUG | -3.97
16 | GGAUCUUCUCGAUCUAACAAGAAAGACAAAUCUGCCACAAAGCUUGAGUGCAUCUUGGGAUGCAGAGGCGGCAGCCUUCGGUGGCGCGAUAGCGCCAACGUUCUCAACUAUGACACGCAAAACGCGUGCUCCGUUGAAUGGAGUUUAUCGUG | ≤ -4.2
17 | GGAUCUUCUCGAUCUAACAAGAAAGACAAAUCUGCCACAAAGCUUGAGAGCGUCUUCGGAUGCAGAGGCGGCAGCCUUCGGUGGUGCGAUAGCGCCAACGUUCGCAACUAUGACACGCAAAACGCGUGCUCCGUUGAAUGGAGUUUAUCAUG | -0.132
18 | GGAUCUUCUCGAUCUAACAAGAAAGAUAAAUCUGCCAAAAAGCUUGAGAGCAUCUUCGGAUGCAGAGGCGGCAGCCUUCGGUGGCGCGAUAGGGCCAACGAUCUCAACUAUGACACGCAAAACGCGUGCUCCGUUGAAUGGAGUUCAUCAUG | ≤ -4.2
19 | GGAUCUUCUCGAUCUAACAAGAAAGACAAAUCUGCCACAAAGCUUGAGAGCAUCUUUGGAUGCAGAGGCGGCAGCCUUCGGUGGCGCGAUAGUGCCAACGUUCUCAACUAUGACACGCAAAACGCGUGCUCCGUUCAAUGGAGUUUAUCAUG | -4.04
